For 2 molecules, EC50 results are on record in patent US20250250334A1 (MEDICOVESTOR, published 2025).

Assay [1] addresses T1, fusion protein containing the extracellular domain of human FRalpha and a polyhistidine tag (human, UniProt P15328 25-233).
T1 construct: extracellular domain; Coated on ELISA plates; also called human FRalpha extracellular domain; not shown: polyhistidine tag
In words: ELISA, coated human FRalpha ECD-His. As for the experimental part: (§1) The affinity of each IgG1 for FRalpha was confirmed by ELISA. Briefly, a fusion protein containing the extracellular domain of human FRalpha and a polyhistidine tag was used to coat ELISA plates, which were washed three times with phosphate-buffered saline (PBS) containing 0.1 percent polysorbate 20 (PBST), then blocked with PBS containing 5 percent powdered milk (PBSM), and then washed three more times with PBST. Wells were then incubated with antibodies at varying concentrations for 60 minutes at room temperature in 1 percent PBSM. Wells were then washed three times with PBST, after which the secondary, horseradish-peroxidase-conjugated antibody anti-human-IgG-Fc-HRP (ab97225, Abcam, United Kingdom) was added at a 1:8000 dilution in 1 percent PBSM for 50 minutes at room temperature. The wells were then washed six times with PBST, after which 3,3′, 5,5″-tetramethylbenzidine (TMB) was added. The reaction was stopped with 2 molar sulfuric acid, and the TMB diamine product was quantified at 450 nanometers in a plate reader. Results are depicted in FIG. 2.

Assay [2] deals with T2, fusion protein containing the extracellular domain of cynomolgus FRalpha and a polyhistidine tag (cynomolgus, UniProt A0A2K5U044 25-233).
T2 construct: extracellular domain; Coated on ELISA plates; also called cynomolgus FRalpha extracellular domain; not shown: polyhistidine tag
T2 sequence (A0A2K5U044 entry or part of it): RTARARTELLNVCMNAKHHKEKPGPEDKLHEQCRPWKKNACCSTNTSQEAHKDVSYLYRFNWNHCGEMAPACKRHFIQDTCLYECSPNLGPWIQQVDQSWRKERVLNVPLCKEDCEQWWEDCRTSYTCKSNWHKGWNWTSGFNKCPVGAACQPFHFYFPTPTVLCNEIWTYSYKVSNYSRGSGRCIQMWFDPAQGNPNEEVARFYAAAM
Description: ELISA, coated cynomolgus FRalpha ECD-His. How it is done: as §1
The ELISA of the preceding paragraph was repeated with a fusion protein containing the extracellular domain of cynomolgus FRalpha and a polyhistidine tag. Results are depicted in FIG. 3.

Assay [3] addresses T3, human FRalpha expressed on cells (transfected HEK293 cells; SKOV3 human ovarian cancer cells) (human, UniProt P15328 25-234).
T3 construct: whole, on cells; also called human folate receptor alpha
In words: flow cytometry, HEK293 cells transfected to express FRalpha. As for the experimental part:
(§2) The affinity of each antibody was then assessed by flow cytometry. Briefly, HEK293 cells transfected to express FRalpha were washed with fluorescence-activated cell sorting (FACS) buffer, to which the IgGs were added at varying concentrations and incubated at 4 degrees Celsius for 60 minutes. The cells were then centrifuged and washed twice in FACS buffer. A phycoerythrin-labelled anti-human IgG, Fcgamma antibody (109-115-098; Jackson ImmunoResearch, Pennsylvania, United States) was then added to the cells at a 1:200 dilution and incubated at 4 degrees Celsius for 30 minutes. The cells were then washed, resuspended in FACS buffer, and counted by flow cytometry. Results are depicted in FIG. 4.

Assay [4] addresses T3, human FRalpha expressed on cells …. Description: flow cytometry, SKOV3 human ovarian cancer cells that express FRalpha. How it is done:
as §2
The flow cytometry experiment of the preceding paragraph was repeated with a human ovarian cancer cell line that expresses FRalpha, SKOV3. Results are depicted in FIGS. 5A and 5B. […] The antibody according to SEQ ID NO: 3-12 was then designated the lead antibody for further development.

A value given as a limit tells only on which side of the number the result lay.

T3 sequence (P15328 25-234): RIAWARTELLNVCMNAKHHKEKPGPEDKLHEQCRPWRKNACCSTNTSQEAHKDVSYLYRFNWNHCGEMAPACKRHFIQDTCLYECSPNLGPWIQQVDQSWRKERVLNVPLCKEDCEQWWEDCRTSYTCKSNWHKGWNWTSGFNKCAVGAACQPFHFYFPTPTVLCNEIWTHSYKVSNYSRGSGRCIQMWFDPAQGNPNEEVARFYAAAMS
T1 sequence (P15328 25-233 limits assumed): as the sequence (A0A2K5U044 entry or part of it) above, with T2I, R4W, K37R, P146A, Y171H counted along it

B1: lead fully-human anti-FRalpha IgG1 antibody (antibody according to SEQ ID NO: 3-12) (antibody, V domains shown)
VH: EVQLLESGGGLVKPGGSLRLSCAASGFTFSSYTMNWVRQAPGKGLEWVSSISSGGGYIYYADSVKDRFTISRDNAKNSLYLQMNSLRAEDTAVYYCAKGDTIMIISAWGQGTTVTVSS
VL: DIQLTQSPSTLSASVGDRVTITCRASQSISSWLAWHQQKPGKAPKLLIYAASSLQNGVPSRFSGSGFGTDFTLTISSLQPEDFATYYCQQASSFPLTFGGGTKVEIKR
notes: Fully human IgG1/kappa; also called lead antibody
Turning to B1, the EC50 in assay [1] was around 0.05 nM; in assay [2], around 0.06 nM; in assay [3], around 5 nM; in assay [4], below 1 nM.

B2: Mirvetuximab (antibody, V domains shown)
VH: QVQLVQSGAEVVKPGASVKISCKASGYTFTGYFMNWVKQSPGQSLEWIGRIHPYDGDTFYNQKFQGKATLTVDKSSNTAHMELLSLTSEDFAVYYCTRYDGSRAMDYWGQGTTVTVSS
VL: DIVLTQSPLSLAVSLGQPAIISCKASQSVSFAGTSLMHWYHQKPGQQPRLLIYRASNLEAGVPDRFSGSGSKTDFTLTISPVEAEDAATYYCQQSREYPYTFGGGTKLEIK
For the molecule B2, the EC50 in assay [1] is around 0.12 nM; in assay [2], around 0.16 nM; in assay [3], around 4 nM.
